Consider two molecules from paper PMC11417181.

Conditions in all cases: remark: other sources report otherwise
In test [1] the target is T1, fully deglycosylated complement factor H (200 h PNGase F) (human), P08603.
T1 chain: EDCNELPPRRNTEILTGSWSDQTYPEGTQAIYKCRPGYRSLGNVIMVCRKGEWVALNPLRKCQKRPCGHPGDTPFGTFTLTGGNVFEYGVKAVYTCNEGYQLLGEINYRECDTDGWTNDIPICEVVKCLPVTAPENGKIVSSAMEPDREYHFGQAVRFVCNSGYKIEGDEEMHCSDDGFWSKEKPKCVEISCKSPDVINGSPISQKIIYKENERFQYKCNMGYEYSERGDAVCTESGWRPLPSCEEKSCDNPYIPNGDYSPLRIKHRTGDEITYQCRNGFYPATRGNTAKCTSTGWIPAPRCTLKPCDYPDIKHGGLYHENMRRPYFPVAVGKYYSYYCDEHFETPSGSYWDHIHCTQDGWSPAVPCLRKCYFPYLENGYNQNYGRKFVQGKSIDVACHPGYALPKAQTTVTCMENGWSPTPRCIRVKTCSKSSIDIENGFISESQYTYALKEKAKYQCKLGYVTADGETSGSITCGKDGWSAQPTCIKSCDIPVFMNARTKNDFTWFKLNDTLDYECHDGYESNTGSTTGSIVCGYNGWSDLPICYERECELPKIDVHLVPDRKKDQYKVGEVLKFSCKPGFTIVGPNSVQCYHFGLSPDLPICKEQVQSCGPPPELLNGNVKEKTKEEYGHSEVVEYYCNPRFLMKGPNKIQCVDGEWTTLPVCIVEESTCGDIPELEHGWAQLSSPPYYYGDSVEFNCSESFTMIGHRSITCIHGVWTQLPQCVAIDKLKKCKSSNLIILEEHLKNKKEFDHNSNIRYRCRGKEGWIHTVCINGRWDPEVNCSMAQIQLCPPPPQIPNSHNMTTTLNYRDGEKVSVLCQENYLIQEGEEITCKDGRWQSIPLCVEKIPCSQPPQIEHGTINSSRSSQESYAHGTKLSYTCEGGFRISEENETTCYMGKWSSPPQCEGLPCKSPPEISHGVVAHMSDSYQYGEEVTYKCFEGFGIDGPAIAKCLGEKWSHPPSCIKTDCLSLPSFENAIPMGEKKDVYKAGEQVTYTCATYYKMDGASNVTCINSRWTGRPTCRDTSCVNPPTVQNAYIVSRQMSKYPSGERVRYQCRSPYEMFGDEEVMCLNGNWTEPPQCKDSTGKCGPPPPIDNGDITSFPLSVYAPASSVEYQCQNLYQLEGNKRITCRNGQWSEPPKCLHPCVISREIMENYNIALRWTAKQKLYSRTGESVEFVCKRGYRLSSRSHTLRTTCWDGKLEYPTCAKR
The test can be described thus: AUC; sedimentation velocity of full-length CFH, 20 °C, 40,000 rpm, Hepes buffer, 0.2 to 1.8 mg/ml, c(s) analysis in SEDFIT, proportions from peak integration; monomer to dimer.

For test [2], the target named is T2, complement factor H, native glycosylated, full-length, purified from human plasma (human), P08603.
T2 chain: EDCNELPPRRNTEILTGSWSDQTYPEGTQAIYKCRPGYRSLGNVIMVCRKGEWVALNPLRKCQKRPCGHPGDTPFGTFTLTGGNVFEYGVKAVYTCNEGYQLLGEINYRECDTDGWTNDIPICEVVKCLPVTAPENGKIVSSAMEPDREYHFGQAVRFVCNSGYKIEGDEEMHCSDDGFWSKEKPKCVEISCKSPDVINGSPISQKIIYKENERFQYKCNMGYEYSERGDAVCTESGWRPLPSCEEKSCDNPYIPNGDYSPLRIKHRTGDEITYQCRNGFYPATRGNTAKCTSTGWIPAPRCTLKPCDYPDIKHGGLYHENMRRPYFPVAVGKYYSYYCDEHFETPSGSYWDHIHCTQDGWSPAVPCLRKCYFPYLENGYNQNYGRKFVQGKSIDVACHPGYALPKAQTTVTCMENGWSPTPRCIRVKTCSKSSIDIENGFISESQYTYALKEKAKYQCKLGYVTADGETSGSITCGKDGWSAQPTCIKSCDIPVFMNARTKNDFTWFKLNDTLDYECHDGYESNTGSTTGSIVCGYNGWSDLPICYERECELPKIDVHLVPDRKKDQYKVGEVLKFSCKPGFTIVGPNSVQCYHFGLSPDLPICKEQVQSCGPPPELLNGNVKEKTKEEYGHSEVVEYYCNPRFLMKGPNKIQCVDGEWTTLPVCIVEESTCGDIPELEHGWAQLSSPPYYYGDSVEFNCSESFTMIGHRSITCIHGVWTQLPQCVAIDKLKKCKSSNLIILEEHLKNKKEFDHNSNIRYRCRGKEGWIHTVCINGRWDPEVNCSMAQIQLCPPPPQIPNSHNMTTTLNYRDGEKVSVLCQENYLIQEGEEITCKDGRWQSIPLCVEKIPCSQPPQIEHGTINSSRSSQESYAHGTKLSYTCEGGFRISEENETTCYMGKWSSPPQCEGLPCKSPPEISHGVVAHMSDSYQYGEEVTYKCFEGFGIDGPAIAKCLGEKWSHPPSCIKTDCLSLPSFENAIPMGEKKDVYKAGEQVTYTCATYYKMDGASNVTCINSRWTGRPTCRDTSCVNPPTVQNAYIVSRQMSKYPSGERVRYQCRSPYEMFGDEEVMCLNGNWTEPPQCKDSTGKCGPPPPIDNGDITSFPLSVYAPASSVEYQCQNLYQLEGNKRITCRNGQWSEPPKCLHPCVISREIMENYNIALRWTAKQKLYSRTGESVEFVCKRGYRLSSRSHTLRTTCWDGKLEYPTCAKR
The test is described as follows: SPR; Biacore X100, biotinylated glycosylated CFH on a streptavidin chip (781 RU), CFH preparations flowed at 0.01 to 1.8 μM, Hepes buffer, single-cycle, 1:1 steady-state affinity fit.

The target of test [3] is T3, partially deglycosylated complement factor H (100 h PNGase F) (human), P08603.
T3 chain: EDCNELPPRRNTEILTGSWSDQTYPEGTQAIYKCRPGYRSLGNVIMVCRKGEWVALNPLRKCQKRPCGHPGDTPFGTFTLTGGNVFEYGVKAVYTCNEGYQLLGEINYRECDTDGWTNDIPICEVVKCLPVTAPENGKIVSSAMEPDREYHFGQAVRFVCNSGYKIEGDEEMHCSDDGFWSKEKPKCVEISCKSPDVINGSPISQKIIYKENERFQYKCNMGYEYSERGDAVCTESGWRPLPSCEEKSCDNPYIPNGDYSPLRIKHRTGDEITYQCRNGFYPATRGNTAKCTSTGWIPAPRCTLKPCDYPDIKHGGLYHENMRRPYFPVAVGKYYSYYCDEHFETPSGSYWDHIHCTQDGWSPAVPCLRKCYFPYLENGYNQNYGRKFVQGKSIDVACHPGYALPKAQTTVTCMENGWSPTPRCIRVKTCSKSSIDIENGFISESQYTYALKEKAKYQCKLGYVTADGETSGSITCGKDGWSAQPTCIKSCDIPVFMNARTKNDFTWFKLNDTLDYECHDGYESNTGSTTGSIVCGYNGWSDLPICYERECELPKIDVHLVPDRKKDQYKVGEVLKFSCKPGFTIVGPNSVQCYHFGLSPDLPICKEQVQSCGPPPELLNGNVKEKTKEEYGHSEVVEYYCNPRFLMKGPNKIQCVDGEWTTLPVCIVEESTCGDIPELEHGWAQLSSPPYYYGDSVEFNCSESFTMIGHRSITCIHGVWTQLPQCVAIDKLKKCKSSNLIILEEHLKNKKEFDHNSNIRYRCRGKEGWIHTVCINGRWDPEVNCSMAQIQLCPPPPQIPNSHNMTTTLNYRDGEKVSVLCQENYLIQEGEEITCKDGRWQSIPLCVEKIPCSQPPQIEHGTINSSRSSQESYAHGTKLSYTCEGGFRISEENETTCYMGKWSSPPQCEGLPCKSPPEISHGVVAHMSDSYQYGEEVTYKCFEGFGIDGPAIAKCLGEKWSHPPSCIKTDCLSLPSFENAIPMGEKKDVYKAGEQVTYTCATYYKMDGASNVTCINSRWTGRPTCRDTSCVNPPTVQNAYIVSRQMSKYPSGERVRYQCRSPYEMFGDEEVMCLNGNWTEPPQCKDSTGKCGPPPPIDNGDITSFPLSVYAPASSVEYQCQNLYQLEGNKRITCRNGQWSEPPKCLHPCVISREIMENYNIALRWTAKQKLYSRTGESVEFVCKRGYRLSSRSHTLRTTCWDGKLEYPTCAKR
The test is described as follows: AUC; sedimentation velocity of full-length CFH, 20 °C, 40,000 rpm, Hepes buffer, 0.2 to 1.8 mg/ml, c(s) analysis in SEDFIT, proportions from peak integration; monomer to dimer.

B1: fully deglycosylated complement factor H (200 h PNGase F), P08603 19-1231 (natural protein)
chain: EDCNELPPRRNTEILTGSWSDQTYPEGTQAIYKCRPGYRSLGNVIMVCRKGEWVALNPLRKCQKRPCGHPGDTPFGTFTLTGGNVFEYGVKAVYTCNEGYQLLGEINYRECDTDGWTNDIPICEVVKCLPVTAPENGKIVSSAMEPDREYHFGQAVRFVCNSGYKIEGDEEMHCSDDGFWSKEKPKCVEISCKSPDVINGSPISQKIIYKENERFQYKCNMGYEYSERGDAVCTESGWRPLPSCEEKSCDNPYIPNGDYSPLRIKHRTGDEITYQCRNGFYPATRGNTAKCTSTGWIPAPRCTLKPCDYPDIKHGGLYHENMRRPYFPVAVGKYYSYYCDEHFETPSGSYWDHIHCTQDGWSPAVPCLRKCYFPYLENGYNQNYGRKFVQGKSIDVACHPGYALPKAQTTVTCMENGWSPTPRCIRVKTCSKSSIDIENGFISESQYTYALKEKAKYQCKLGYVTADGETSGSITCGKDGWSAQPTCIKSCDIPVFMNARTKNDFTWFKLNDTLDYECHDGYESNTGSTTGSIVCGYNGWSDLPICYERECELPKIDVHLVPDRKKDQYKVGEVLKFSCKPGFTIVGPNSVQCYHFGLSPDLPICKEQVQSCGPPPELLNGNVKEKTKEEYGHSEVVEYYCNPRFLMKGPNKIQCVDGEWTTLPVCIVEESTCGDIPELEHGWAQLSSPPYYYGDSVEFNCSESFTMIGHRSITCIHGVWTQLPQCVAIDKLKKCKSSNLIILEEHLKNKKEFDHNSNIRYRCRGKEGWIHTVCINGRWDPEVNCSMAQIQLCPPPPQIPNSHNMTTTLNYRDGEKVSVLCQENYLIQEGEEITCKDGRWQSIPLCVEKIPCSQPPQIEHGTINSSRSSQESYAHGTKLSYTCEGGFRISEENETTCYMGKWSSPPQCEGLPCKSPPEISHGVVAHMSDSYQYGEEVTYKCFEGFGIDGPAIAKCLGEKWSHPPSCIKTDCLSLPSFENAIPMGEKKDVYKAGEQVTYTCATYYKMDGASNVTCINSRWTGRPTCRDTSCVNPPTVQNAYIVSRQMSKYPSGERVRYQCRSPYEMFGDEEVMCLNGNWTEPPQCKDSTGKCGPPPPIDNGDITSFPLSVYAPASSVEYQCQNLYQLEGNKRITCRNGQWSEPPKCLHPCVISREIMENYNIALRWTAKQKLYSRTGESVEFVCKRGYRLSSRSHTLRTTCWDGKLEYPTCAKR
modifications: here or on the partner: N-linked glycans removed with PNGase F: eight, seven, six or five removed, leaving none, one, two or three glycans; N-linked glycans removed with PNGase F: eight, seven, six or five removed, leaving none, one, two or three glycans
B1: in test [1], the proportion of dimer came out at 16% and the stoichiometry N turned out to be 2. Besides, in test [2], the Kd amounted to 11.5 µM.

B2: partially deglycosylated complement factor H (100 h PNGase F), P08603 19-1231 (natural protein)
chain: EDCNELPPRRNTEILTGSWSDQTYPEGTQAIYKCRPGYRSLGNVIMVCRKGEWVALNPLRKCQKRPCGHPGDTPFGTFTLTGGNVFEYGVKAVYTCNEGYQLLGEINYRECDTDGWTNDIPICEVVKCLPVTAPENGKIVSSAMEPDREYHFGQAVRFVCNSGYKIEGDEEMHCSDDGFWSKEKPKCVEISCKSPDVINGSPISQKIIYKENERFQYKCNMGYEYSERGDAVCTESGWRPLPSCEEKSCDNPYIPNGDYSPLRIKHRTGDEITYQCRNGFYPATRGNTAKCTSTGWIPAPRCTLKPCDYPDIKHGGLYHENMRRPYFPVAVGKYYSYYCDEHFETPSGSYWDHIHCTQDGWSPAVPCLRKCYFPYLENGYNQNYGRKFVQGKSIDVACHPGYALPKAQTTVTCMENGWSPTPRCIRVKTCSKSSIDIENGFISESQYTYALKEKAKYQCKLGYVTADGETSGSITCGKDGWSAQPTCIKSCDIPVFMNARTKNDFTWFKLNDTLDYECHDGYESNTGSTTGSIVCGYNGWSDLPICYERECELPKIDVHLVPDRKKDQYKVGEVLKFSCKPGFTIVGPNSVQCYHFGLSPDLPICKEQVQSCGPPPELLNGNVKEKTKEEYGHSEVVEYYCNPRFLMKGPNKIQCVDGEWTTLPVCIVEESTCGDIPELEHGWAQLSSPPYYYGDSVEFNCSESFTMIGHRSITCIHGVWTQLPQCVAIDKLKKCKSSNLIILEEHLKNKKEFDHNSNIRYRCRGKEGWIHTVCINGRWDPEVNCSMAQIQLCPPPPQIPNSHNMTTTLNYRDGEKVSVLCQENYLIQEGEEITCKDGRWQSIPLCVEKIPCSQPPQIEHGTINSSRSSQESYAHGTKLSYTCEGGFRISEENETTCYMGKWSSPPQCEGLPCKSPPEISHGVVAHMSDSYQYGEEVTYKCFEGFGIDGPAIAKCLGEKWSHPPSCIKTDCLSLPSFENAIPMGEKKDVYKAGEQVTYTCATYYKMDGASNVTCINSRWTGRPTCRDTSCVNPPTVQNAYIVSRQMSKYPSGERVRYQCRSPYEMFGDEEVMCLNGNWTEPPQCKDSTGKCGPPPPIDNGDITSFPLSVYAPASSVEYQCQNLYQLEGNKRITCRNGQWSEPPKCLHPCVISREIMENYNIALRWTAKQKLYSRTGESVEFVCKRGYRLSSRSHTLRTTCWDGKLEYPTCAKR
modifications: here or on the partner: N-linked glycans partly removed with PNGase F: forms with three to six glycan chains were present; N-linked glycans partly removed with PNGase F: forms with three to six glycan chains were present
In test [3], B2 yielded a proportion of dimer of 15% and a stoichiometry N of 2.
